Results on two molecules are retold here after publication PMC7966918.

In the experiment the target is SARS-CoV-2 RBD (residues Arg319–Phe541) (SARS-CoV-2) (UniProt P0DTC2).

B1: P5A-1B8 (Fab) (Fab, V domains shown)
VH: EVQLVESGGGLIQPGGSLRLSCAASGFTVSSNYMSWVRQAPGKGLEWVSVIYPGGSTFYADSVKGRFTISRDNSKNTLYLQMNSLRAEDTAVYYCARETLAFDYWGQGTLVTVSS
VL: DIQLTQSPSFLSASVGDRVTITCRASQGISSYLAWYQQKPGKAPKLLIYAASTLQSGVPSRFSGSGSGTEFTLTISSLQPEDFATYYCQQLNSYPPAFGGGTKVEIK
Molecule B1 showed an SARS-CoV-2 pseudovirus neutralisation (luciferase, Huh7), IC50, Fab of 36.2 nM; an SARS-CoV-2 pseudovirus neutralisation (luciferase, Huh7), IC80, Fab of 174 nM; an other of 25.1%.

B2: P5A-2G7 (Fab) (Fab, V domains shown)
VH: QVQLQESGPGLVKPSETLSLTCTVSGDSVSSGSYYWSWIRQPPGKGLEWIGYIYYSGSTNYNPSLKSRVTISVDTSKNQFSLKLSSVTAADTAVYYCARERCYYGSGRAPRCVWFDPWGQGTLVTVSS
VL: QSALTQPASVSGSPGQSITISCTGTSSDVGGYNYVSWYQQHPGKAPKLMIYDVSNRPSGVSNRFSGSKSGNTASLTISGLQAEDEADYYCSSYTSSSTLVVFGGGTKLTVL
In turn, B2 showed an SARS-CoV-2 pseudovirus neutralisation (luciferase, Huh7), IC50, Fab of 195 nM; an SARS-CoV-2 pseudovirus neutralisation (luciferase, Huh7), IC80, Fab of 1020 nM; an other of 15.5%.
